{
  "source": "paper PMC10979912",
  "target": "Tau (2N4R Tau; Tau(291–391)) 2-441 (UniProt P10636)",
  "assay": "solid-phase ELISA, immobilised fragment, soluble Tau",
  "conditions": "reference: unmodified (WT) Tau(291–391)",
  "data": [
    {"substance": "Tau (2N4R Tau; Tau(291–391)) 291-391 (from UniProt P10636-8) pS352 Tau(291–391)", "values": [
      {"measurement": "binding against the reference", "setting": "sites S352", "value": "weaker"}
    ]},
    {"substance": "Tau (2N4R Tau; Tau(291–391)) 291-391 (from UniProt P10636-8) pS356 Tau(291–391)", "values": [
      {"measurement": "binding against the reference", "setting": "sites S356", "value": "weaker"}
    ]},
    {"substance": "Tau (2N4R Tau; Tau(291–391)) 291-391 (from UniProt P10636-8) pS305 Tau(291–391)", "values": [
      {"measurement": "binding against the reference", "setting": "sites S305", "value": "weaker"}
    ]}
  ]
}
